Laboratory results taken from patent US20120058906A1 (published 2012).

target: T1, Recombinant Human DLL4 (R&D Systems, Cat#1506-D4/CF) (human, UniProt Q9NR61 27-529); test: Surface Plasmon Resonance, recombinant human DLL4
T1 construct: Bought protein; also called rHuman DLL4; delta-like protein 4

Row | Kd [nM] | Binder
1 | 388 | Fab VH1-46_IGHD6-6*01>1_IGHJ1*01_S104F & L6_IGKJ1*01 (Fab, V domains shown, Modified Fab) VH: QVQLVQSGAEVKKPGASVKVSCKASGYTFTSYYMHWVRQAPGQGLEWMGIINPSGGSTSYAQKFQGRVTMTRDTSTSTVYMELSSLRSEDTAVYYCAREEYSSFSAEYFQHWGQGTLVTVSS VL: not shown
2 | 70.6 | Fab VH1-46_IGHD6-6*01_IGHJ1*01_S102A_S103P_S104F_H111F & L6_IGKJ1*01 (Fab, V domains shown, Modified Fab) VH: QVQLVQSGAEVKKPGASVKVSCKASGYTFTSYYMHWVRQAPGQGLEWMGIINPSGGSTSYAQKFQGRVTMTRDTSTSTVYMELSSLRSEDTAVYYCAREEYAPFSAEYFQFWGQGTLVTVSS VL: not shown
3 | 38000 | Fab VH6-1_IGHD3-3*01_IGHJ4*01 & V4-3_IGLJ4*01 (Fab, V domains shown, Fab from E. coli; VH joined to CH1 with Flag and His tags (Plasmid A), VL to lambda CL (Plasmid E)) VH: QVQLQQSGPGLVKPSQTLSLTCAISGDSVSSNSAAWNWIRQSPSRGLEWLGRTYYRSKWYNDYAVSVKSRITINPDTSKNQFSLQLNSVTPEDTAVYYCAREYYDFWSGYYTDYFDYWGQGTLVTVSS VL: QPVLTQPTSLSASPGASARLTCTLRSGINLGSYRIFWYQQKPESPPRYLLSYYSDSSKHQGSGVPSRFSGSKDASSNAGILVISGLQSEDEADYYCMIWHSSASFVFGGGTQLIIL

target: T2, Recombinant Human DLL4 (delta-like protein 4) (human, UniProt Q9NR61 27-524); test: SPR, Fab on recombinant human DLL4; standard deviation in parentheses
T2 construct: Bought (R&D Systems Cat#1506-D4/CF); also called rHuman DLL4

Row | Kd [nM] | koff [s⁻¹] | kon [M⁻¹ s⁻¹] | Binder
4 | 4800 |  |  | Fab VH5-51_IGHD5-18*01>3_IGHJ4*01 & V3-4_IGLJ1*01 (Fab, V domains shown, Germline Fab from E. coli; VH joined to CH1 with Flag/His tags (Plasmid A), VL to lambda constant region (Plasmid E)) VH: EVQLVQSGAEVKKPGESLKISCKGSGYSFTSYWIGWVRQMPGKGLEWMGIIYPGDSDTRYSPSFQGQVTISADKSISTAYLQWSSLKASDTAMYYCARRGYSYGYDYFDYWGQGTLVTVSS VL: QTVVTQEPSFSVSPGGTVTLTCGLSSGSVSTSYYPSWYQQTPGQAPRTLIYSTNTRSSGVPDRFSGSILGNKAALTITGAQADDESDYYCVLYMGSGISYVFGTGTKVTVL
5 | 730 | 0.101 | 163000 | Fab VH1-46_IGHD6-6*01_IGHJ1*01 & L6_IGKJ1*01 (Fab, V domains shown, Germline Fab from E. coli; VH joined to CH1 with Flag/His tags (Plasmid A), VL to kappa constant region (Plasmid C)) VH: QVQLVQSGAEVKKPGASVKVSCKASGYTFTSYYMHWVRQAPGQGLEWMGIINPSGGSTSYAQKFQGRVTMTRDTSTSTVYMELSSLRSEDTAVYYCAREEYSSSSAEYFQHWGQGTLVTVSS VL: not shown
6 | 122 | 0.0492 | 405000 | Fab VH1-46_IGHD6-6*01_IGHJ1*01_S102A_S103P_S104F & L6_IGKJ1*01 (Fab, V domains shown, Modified anti-DLL4 Fab; kappa Plasmid C)) VH: QVQLVQSGAEVKKPGASVKVSCKASGYTFTSYYMHWVRQAPGQGLEWMGIINPSGGSTSYAQKFQGRVTMTRDTSTSTVYMELSSLRSEDTAVYYCAREEYAPFSAEYFQHWGQGTLVTVSS VL: not shown
7 | 70.6 | 0.03 | 425000 | Fab VH1-46_IGHD6-6*01_IGHJ1*01_S102A_S103P_S104F_H111F & L6_IGKJ1*01 (Fab, V domains shown, Modified anti-DLL4 Fab; kappa Plasmid C)) VH: QVQLVQSGAEVKKPGASVKVSCKASGYTFTSYYMHWVRQAPGQGLEWMGIINPSGGSTSYAQKFQGRVTMTRDTSTSTVYMELSSLRSEDTAVYYCAREEYAPFSAEYFQFWGQGTLVTVSS VL: not shown
8 | 112 | 0.0392 | 350000 | Fab VH1-46_IGHD6-6*01_IGHJ1*01_S102A_S103P_S104F & L6_IGKJ1*01_S31K (Fab, V domains shown, Modified anti-DLL4 Fab) VH: QVQLVQSGAEVKKPGASVKVSCKASGYTFTSYYMHWVRQAPGQGLEWMGIINPSGGSTSYAQKFQGRVTMTRDTSTSTVYMELSSLRSEDTAVYYCAREEYAPFSAEYFQHWGQGTLVTVSS VL: EIVLTQSPATLSLSPGERATLSCRASQSVSKYLAWYQQKPGQAPRLLIYDASNRATGIPARFSGSGSGTDFTLTISSLEPEDFAVYYCQQRSNWPPWTFGQGTKVEIKR
9 | 93.1 | 0.0317 | 340000 | Fab VH1-46_IGHD6-6*01_IGHJ1*01_S102A_S103P_S104F_H111Y & L6_IGKJ1*01 (Fab, V domains shown, Modified anti-DLL4 Fab; kappa Plasmid C)) VH: QVQLVQSGAEVKKPGASVKVSCKASGYTFTSYYMHWVRQAPGQGLEWMGIINPSGGSTSYAQKFQGRVTMTRDTSTSTVYMELSSLRSEDTAVYYCAREEYAPFSAEYFQYWGQGTLVTVSS VL: not shown
10 | 380 | 0.19 | 500000 | Fab VH1-46_IGHD6-6*01>1_IGHJ1*01_S104F & L6_IGKJ1*01 (Fab, V domains shown, Modified anti-DLL4 Fab; kappa Plasmid C)) VH: QVQLVQSGAEVKKPGASVKVSCKASGYTFTSYYMHWVRQAPGQGLEWMGIINPSGGSTSYAQKFQGRVTMTRDTSTSTVYMELSSLRSEDTAVYYCAREEYSSFSAEYFQHWGQGTLVTVSS VL: not shown
11 | 38000 |  |  | Fab VH6-1_IGHD3-3*01_IGHJ4*01 & V4-3_IGLJ4*01 (Fab, V domains shown, Germline Fab from E. coli; VH joined to CH1 with Flag/His tags (Plasmid A), VL to lambda constant region (Plasmid E)) VH: QVQLQQSGPGLVKPSQTLSLTCAISGDSVSSNSAAWNWIRQSPSRGLEWLGRTYYRSKWYNDYAVSVKSRITINPDTSKNQFSLQLNSVTPEDTAVYYCAREYYDFWSGYYTDYFDYWGQGTLVTVSS VL: QPVLTQPTSLSASPGASARLTCTLRSGINLGSYRIFWYQQKPESPPRYLLSYYSDSSKHQGSGVPSRFSGSKDASSNAGILVISGLQSEDEADYYCMIWHSSASFVFGGGTQLIIL
12 | 500 | 0.29 | 500000 | Fab VH1-46_IGHD3-10*01_IGHJ4*01 & L12_IGKJ1*01 (Fab, V domains shown) VH: QVQLVQSGAEVKKPGASVKVSCKASGYTFTSYYMHWVRQAPGQGLEWMGIINPSGGSTSYAQKFQGRVTMTRDTSTSTVYMELSSLRSEDTAVYYCAREYYYGSGSYYNDYFDYWGQGTLVTVSS VL: not shown
